The target in the experiment is purified recombinant human α-synuclein (N-terminal histidine tagged) (human, UniProt P37840 1-140). The experiment in a line: SPR; Biacore 3000; about 1500 RU of α-synuclein amine-coupled to a CM5 chip; peptides in two-fold dilutions (0.20-12.50 µM, in duplicate) injected 3 min at 30 µl/min, then 3 min dissociation; HBS pH 7.4 (10 mM HEPES, 150 mM NaCl, 3 mM EDTA, 0.005% P20); double-referenced; report points 20 s into dissociation (200 s). The settings on record: both partners purified.

B1: Tat-βsyn-degron peptide (peptide)
peptide: YGRKKRRQRRRRTKSGVYLVGRRRG
notes: Tat plasma membrane transduction domain (HIV-1 Tat stretch); degron, proteasomal targeting signal; also called α-synuclein knockdown peptide; α-synuclein targeting peptide; source: synthetic peptide (GL Biochem, Shanghai)
As for B1, the binding result is “binds”.

The record behind these values is publication PMC7895943 (Communications Biology, 2021).
